# Results published in patent US12116428B2, “Lipid analogs and liposomes comprising same” (Yeda Research and Development Co. Ltd., priority 2015, dated 2024).
# Tests used:
# [1] = Zeta potential measurement; type: physicochemical; details: FIG. 11: SUVs of HSPC and DSG-PMPC
# [2] = Micelle formation in water by dynamic light scattering; type: physicochemical; details: 20 mg/ml in pure water (pH 5), one day
Substance,net charge (zeta potential) [1],micelle formation [2]
"1,2-distearoyl-sn-glycerol-poly((O-(2-methacryloyloxyethyl) phosphorylcholine) [DSG-PMPC]",zero,–
distearoylphosphatidylethanolamine-substituted poly(O-(2-methacryloyloxyethyl)phosphorylcholine) [DSPE-PMPC],–,formed micelles
